# Source: CN113797333A (SHANGHAI JUNSHI BIOSCIENCES CO LTD; JUNMENG BIOSCIENCES CO …, dated 2021)
# Values joined by “and” are separate entries in the source; they are usually repeats but may differ in a detail not shown here. Identical values can stand only once.
# Molecular target: 全序列COVID-19刺突蛋白 (on COVID-19 pseudovirus) (COVID-19 (SARS-CoV-2), UniProt P0DTC2 14-1273)
# Test: cell-based or functional assay
binder,measurement,value
"人源化单克隆抗体CB6 (antibody, V domains shown) VH: EVQLVESGGGLVQPGGSLRLSCAASGFTVSSNYMSWVRQAPGKGLEWVSVIYSGGSTFYADSVKGRFTISRDNSMNTLFLQMNSLRAEDTAVYYCARVLPMYGDYLDYWGQGTLVTVSS VL: not shown",IC50 of inhibition of COVID-19 pseudovirus infection of Huh-7 cells (luciferase),0.183 nM and 0.0275 μg/ml
